Data on eight molecules can be found in US20200325220A1 (INSTITUTE FOR RESEARCH IN BIOMEDICINE, published 2020).

The target in assay [1] is T1, recombinant human GM-CSF (human, UniProt P04141 18-144). The assay is described as follows: SPR, GM-CSF on the chip, antibody then collagen. Background: SPR reads the build-up and loss of mass on a sensor chip optically.
Assay [2] deals with T1, recombinant human GM-CSF. Briefly: SPR, antibody captured on protein A, GM-CSF then collagen.
Assay [3] concerns the target T2, type I recombinant human collagen (human, UniProt P02452 162-1218; P08123 80-1119). Described as above.
Assay [4] has as its target T1, recombinant human GM-CSF. Briefly: SPR, GM-CSF on the chip.
Assay [5] addresses T2, type I recombinant human collagen. Briefly: SPR, GM-CSF on the chip, antibody then collagen.
Assay [6] concerns the target T1, recombinant human GM-CSF. The assay is described as follows: ELISA, plate coated with GM-CSF.

T1 sequence (P04141 18-144 limits assumed): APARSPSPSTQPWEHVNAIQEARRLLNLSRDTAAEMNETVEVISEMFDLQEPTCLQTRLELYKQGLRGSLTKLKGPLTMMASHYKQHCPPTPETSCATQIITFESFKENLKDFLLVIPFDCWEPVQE
T2 sequence (P02452 162-1218 limits assumed, chain 1 of 2): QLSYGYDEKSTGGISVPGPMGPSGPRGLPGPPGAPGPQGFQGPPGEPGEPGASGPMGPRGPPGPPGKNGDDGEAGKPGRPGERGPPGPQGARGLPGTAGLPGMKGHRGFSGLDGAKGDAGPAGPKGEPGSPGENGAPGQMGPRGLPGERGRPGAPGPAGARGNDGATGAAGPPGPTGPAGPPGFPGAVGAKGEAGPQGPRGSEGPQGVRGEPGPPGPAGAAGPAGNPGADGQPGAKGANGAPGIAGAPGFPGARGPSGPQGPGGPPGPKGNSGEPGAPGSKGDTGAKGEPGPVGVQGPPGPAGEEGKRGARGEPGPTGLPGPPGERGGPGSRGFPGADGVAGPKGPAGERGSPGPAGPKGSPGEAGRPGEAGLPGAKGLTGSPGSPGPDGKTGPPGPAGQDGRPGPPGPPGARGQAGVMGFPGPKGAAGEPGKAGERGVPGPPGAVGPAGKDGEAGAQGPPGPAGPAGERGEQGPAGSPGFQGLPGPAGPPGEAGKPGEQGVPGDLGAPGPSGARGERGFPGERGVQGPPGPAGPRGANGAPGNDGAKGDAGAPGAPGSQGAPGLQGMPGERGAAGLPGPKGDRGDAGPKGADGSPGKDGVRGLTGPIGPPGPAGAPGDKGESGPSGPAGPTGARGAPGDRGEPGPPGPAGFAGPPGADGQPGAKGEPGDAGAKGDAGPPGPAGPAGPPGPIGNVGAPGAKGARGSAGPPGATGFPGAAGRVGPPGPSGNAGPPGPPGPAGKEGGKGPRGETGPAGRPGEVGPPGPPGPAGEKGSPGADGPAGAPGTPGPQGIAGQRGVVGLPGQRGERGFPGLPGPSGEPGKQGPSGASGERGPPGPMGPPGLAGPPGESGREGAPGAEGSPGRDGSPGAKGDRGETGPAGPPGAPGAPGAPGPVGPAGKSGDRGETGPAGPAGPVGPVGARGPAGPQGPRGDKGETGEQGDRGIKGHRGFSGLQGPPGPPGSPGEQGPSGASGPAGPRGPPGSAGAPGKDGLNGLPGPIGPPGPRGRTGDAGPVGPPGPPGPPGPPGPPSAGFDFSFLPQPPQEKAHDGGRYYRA
T2 sequence (P08123 80-1119 limits assumed, chain 2 of 2): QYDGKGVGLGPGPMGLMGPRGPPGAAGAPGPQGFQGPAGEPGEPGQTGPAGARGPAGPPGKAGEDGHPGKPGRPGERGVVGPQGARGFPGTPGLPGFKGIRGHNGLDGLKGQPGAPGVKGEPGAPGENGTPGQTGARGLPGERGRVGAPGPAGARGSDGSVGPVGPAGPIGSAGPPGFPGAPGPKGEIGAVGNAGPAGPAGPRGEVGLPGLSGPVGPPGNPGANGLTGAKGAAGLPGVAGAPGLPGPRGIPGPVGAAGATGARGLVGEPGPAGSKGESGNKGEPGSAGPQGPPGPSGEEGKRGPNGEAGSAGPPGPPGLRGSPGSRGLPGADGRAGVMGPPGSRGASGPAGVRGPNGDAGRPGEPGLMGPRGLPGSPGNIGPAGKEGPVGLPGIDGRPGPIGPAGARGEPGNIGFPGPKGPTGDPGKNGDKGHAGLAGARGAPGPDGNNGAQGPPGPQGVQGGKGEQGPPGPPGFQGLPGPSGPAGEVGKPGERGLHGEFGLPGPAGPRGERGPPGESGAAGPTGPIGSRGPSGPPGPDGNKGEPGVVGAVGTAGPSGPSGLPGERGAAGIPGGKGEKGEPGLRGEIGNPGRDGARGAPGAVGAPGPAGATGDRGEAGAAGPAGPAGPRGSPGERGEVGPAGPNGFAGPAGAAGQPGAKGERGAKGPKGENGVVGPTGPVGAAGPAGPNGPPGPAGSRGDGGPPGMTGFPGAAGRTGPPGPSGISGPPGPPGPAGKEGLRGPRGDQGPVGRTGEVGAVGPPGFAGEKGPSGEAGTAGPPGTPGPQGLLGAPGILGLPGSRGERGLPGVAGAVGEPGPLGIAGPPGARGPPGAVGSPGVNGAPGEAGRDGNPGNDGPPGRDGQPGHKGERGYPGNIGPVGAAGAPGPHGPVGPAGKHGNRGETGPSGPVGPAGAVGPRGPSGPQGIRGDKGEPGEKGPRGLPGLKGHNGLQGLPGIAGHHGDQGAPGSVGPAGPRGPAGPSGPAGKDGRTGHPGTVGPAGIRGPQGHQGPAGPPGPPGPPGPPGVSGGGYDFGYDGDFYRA

B1: FI174 (antibody, V domains shown)
VH: QVQLVQSGAEVRKPGSSVKVSCKTSGGIIRKYALSWVRQAPGQGLEWMGGIIAIFGTTNYAQKFQGRVTINADESTSTVYLELSSLTSEDTAIYYCAGSATYYESRFDYWGQGTLVTVSS
VL: EIVLTQSPGTLSLSPGARATLSCRASQSVSSSSLAWYQQKPGQAPRLLIYDASSRATGIPDRFSGSGSGTDFTLTISRLEPEDFAVYYCHQYGDSRKTFGQGTKVEIKR
notes: also called F1174; FI74
Regarding B1, the binding result in the assay with recombinant human GM-CSF [1] was “no binding (tested: antibody 10 nM)”.

B2: TT107 (antibody, V domains shown)
VH: QVQLIQSGGGLVKPGGSLRLSCAASGFTFSDYYMSWIRQVPGKGLEWISVISATTGYTDYADSVKGRFTISRDNAKNSVFLQMNSLRVDDMAVYYCAREVLGTAWFDYWGQGTLVTISS
VL: EIVLTQSPGTLSLSPGERATLSCRASQSVTSNYLAWYQQKPGQAPRLLIYGVSRRATGIPDRFSGSGSGTDFALTISRLEPEDFAVYYCQQYRSSPRTFGPGTKVEFKR
notes: also called TT-specific monoclonal antibody
Consider B2, for which the results for the binding result (with recombinant human GM-CSF [2]; in assay [3]) were “no binding (tested: GM-CSF 50 nM)” and “no binding (tested: collagen 50 nM)”, respectively.

B3: C4 (bispecific antibody, human IgG1, kappa)
heavy: not shown
light: EIVLTQSPGTLSLSPGETAILSCRASQSVSSSLLAWYQQKPGQAPRLLIYGASNRATGIRGRFSGSGSGTDFTLTISRLEPEDFVLYYCQHYGSRVTFGQGTKLEIKRTVAAPSVFIFPPSDEQLKSGTASVVCLLNNFYPREAKVQWKVDNALQSGNSQESVTEQDSKDSTYSLSSTLTLSKADYEKHKVYACEVTHQGLSSPVTKSFNRGEC
notes: also called construct C4; bispecific construct C4
For the molecule B3, in the assay with recombinant human GM-CSF [4], the binding result was “binds”.

B4: GCE536 (antibody, human IgG1, kappa)
heavy: not shown
light: EIVLTQSPGTLSLSPGETAILSCRASQSVSSSLLAWYQQKPGQAPRLLIYGASNRATGIRGRFSGSGSGTDFTLTISRLEPEDFVLYYCQHYGSRVTFGQGTKLEIKRTVAAPSVFIFPPSDEQLKSGTASVVCLLNNFYPREAKVQWKVDNALQSGNSQESVTEQDSKDSTYSLSSTLTLSKADYEKHKVYACEVTHQGLSSPVTKSFNRGEC
notes: also called anti-GM-CSF antibody; scaffold antibody
Take B4: the binding result is given as “binds” with recombinant human GM-CSF [4] and “no binding (tested: collagen 50 nM)” in assay [5].

B5: C5 (antibody, human IgG1, kappa)
heavy: not shown
light: EIVLTQSPGTLSLSPGETAILSCRASQSVSSSLLAWYQQKPGQAPRLLIYGASNRATGIRGRFSGSGSGTDFTLTISRLEPEDFVLYYCQHYGSRVTFGQGTKLEIKRTVAAPSVFIFPPSDEQLKSGTASVVCLLNNFYPREAKVQWKVDNALQSGNSQESVTEQDSKDSTYSLSSTLTLSKADYEKHKVYACEVTHQGLSSPVTKSFNRGEC
notes: also called construct C5
Regarding B5, in the assay with recombinant human GM-CSF [4], the binding result is “binds”.

B6: C6b (antibody, human IgG1, kappa)
heavy: not shown
light: EIVLTQSPGTLSLSPGETAILSCRASQSVSSSLLAWYQQKPGQAPRLLIYGASNRATGIRGRFSGSGSGTDFTLTISRLEPEDFVLYYCQHYGSRVTFGQGTKLEIKRTVAAPSVFIFPPSDEQLKSGTASVVCLLNNFYPREAKVQWKVDNALQSGNSQESVTEQDSKDSTYSLSSTLTLSKADYEKHKVYACEVTHQGLSSPVTKSFNRGEC
notes: also called construct C6b
In the case of B6, the binding result with recombinant human GM-CSF [6] is recorded as “binds”.

B7: C5b (antibody, human IgG1, kappa)
heavy: not shown
light: EIVLTQSPGTLSLSPGETAILSCRASQSVSSSLLAWYQQKPGQAPRLLIYGASNRATGIRGRFSGSGSGTDFTLTISRLEPEDFVLYYCQHYGSRVTFGQGTKLEIKRTVAAPSVFIFPPSDEQLKSGTASVVCLLNNFYPREAKVQWKVDNALQSGNSQESVTEQDSKDSTYSLSSTLTLSKADYEKHKVYACEVTHQGLSSPVTKSFNRGEC
notes: also called construct C5b
Regarding B7, the binding result with recombinant human GM-CSF [6] is “binds”.

B8: MGD^UCA (antibody, human IgG1, kappa)
heavy: not shown
light: AIRMTQSPSSFSASTGDRVTITCRASQGISSYLAWYQQKPGKAPKLLIYAASTLQSGVPSRFSGSGSGTDFTLTISCLQSEDFATYYCQQYYSYPPDFGQGTRLEIKRTVAAPSVFIFPPSDEQLKSGTASVVCLLNNFYPREAKVQWKVDNALQSGNSQESVTEQDSKDSTYSLSSTLTLSKADYEKHKVYACEVTHQGLSSPVTKSFNRGEC
notes: also called collagen-specific MGD^UCA antibody
For the molecule B8, the binding result in the assay with recombinant human GM-CSF [1] is “no binding (tested: antibody 10 nM)”.
